Assay results reported in IntAct's records for PubMed 29106382.

B1: Angiopoietin-1 (Homo sapiens), Q15389 (parent)
chain: MTVFLSFAFLAAILTHIGCSNQRRSPENSGRRYNRIQHGQCAYTFILPEHDGNCRESTTDQYNTNALQRDAPHVEPDFSSQKLQHLEHVMENYTQWLQKLENYIVENMKSEMAQIQQNAVQNHTATMLEIGTSLLSQTAEQTRKLTDVETQVLNQTSRLEIQLLENSLSTYKLEKQLLQQTNEILKIHEKNSLLEHKILEMEGKHKEELDTLKEEKENLQGLVTRQTYIIQELEKQLNRATTNNSVLQKQQLELMDTVHNLVNLCTKEGVLLKGGKREEEKPFRDCADVYQAGFNKSGIYTIYINNMPEPKKVFCNMDVNGGGWTVIQHREDGSLDFQRGWKEYKMGFGNPSGEYWLGNEFIFAITSQRQYMLRIELMDWEGNRAYSQYDRFHIGNEKQNYRLYLKGHTGTAGKQSSLILHGADFSTKDADNDNCMCKCALMLTGGWWFDACGPSNLNGMFYTAGQNHGKLNGIKWHYFKGPSYSLRSTTMMIRPLDF

Variants of: B1
Details: with tie2_human TEK
With K249R the “effect of a mutation on the interaction” value was “with no effect”.
